Patent publication US20200353050A1 (Eli Lilly, published 2020)

Tests used:
PD-1 = molecular target: T1, PD-1; assay: bio-layer interferometry (BLI)
T1 construct: the paragraph before it speaks of human and cynomolgus PD-1; also called programmed cell death protein 1; CD279

cynomologous monkey PD-1 = molecular target: T2, cynomologous monkey PD-1 (cynomologous monkey, UniProt B0LAJ3 25-170); assay: method not stated in that sentence (BLI in the next one), 25° C
T2 construct: also called cynomolgus PD-1

human PD-1 = molecular target: T3, human PD-1 (human, UniProt Q15116 25-167, limits assumed); assay: method not stated in that sentence (BLI in the next one), 25° C; 25° C; human PD-1
T3 construct: also called programmed cell death protein 1; CD279
T3 sequence (Q15116 25-167 limits assumed): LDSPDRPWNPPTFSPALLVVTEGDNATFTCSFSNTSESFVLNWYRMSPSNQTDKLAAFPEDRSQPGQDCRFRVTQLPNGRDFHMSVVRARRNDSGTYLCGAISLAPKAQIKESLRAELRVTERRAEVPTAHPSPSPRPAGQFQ

T1 sequence (Q15116 25-170): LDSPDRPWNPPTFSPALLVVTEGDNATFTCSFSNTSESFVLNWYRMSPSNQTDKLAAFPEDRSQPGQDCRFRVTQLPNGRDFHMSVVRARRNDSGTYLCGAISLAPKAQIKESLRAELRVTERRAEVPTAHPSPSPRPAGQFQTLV
T2 sequence (B0LAJ3 entry or part of it limits assumed): as the sequence (Q15116 25-170) above, with D2E, P10A, V19L, T35A, Q75R, T144A counted along it

B1: AM0001 (antibody, human IgG4 S228P, lambda, V domains shown)
VH: EVQLLESGGGLVQPGGSLRLSCPASGFTFSSYAMSWVRQAPGKGLGWVSDISGGGGTTYYADSVKGRFTISRDNSKNTLYLQMNSLRGEDTAVYYCAKSGTVVTDFDYWGQGTLVTVSS
VL: SYVLTQPPSVSVAPGQTARVTCGGNSIGSYSVHWYQQKPGQAPVLVVYDDSDRPSGIPERFSGSNSGNTAALTISRVEAGDEADYYCQVWDTSSYWVFGGGTKLTVLG
notes: Monoclonal antibody with a lambda 2 light chain and a hinge-stabilized IgG4 (S228P) heavy chain; also called PD1-antagonist antibody AM0001; VH-09/VL-09
Kd (PD-1): < 0.001 nM | Kd (cynomologous monkey PD-1): ≤ 0.01 nM | Kd (human PD-1): ≤ 0.01 nM
